Test results from patent US20100240066A1 (MCGILL UNIVERSITY, published 2010).
Where two headings read alike, the source gives them in different places. Where no end group is shown, it is not given here.

Tests used:
[1] = target: T1, E-cadherin/Fc chimeric protein (human, UniProt P12830 155-707); test: phage ELISA
T1 construct: range 155-707; Bought from R&D Systems; also called E-cad/Fc; human E-cadherin/Fc chimeric protein; not shown: Fc region of human IgG1
T1 sequence (looked up): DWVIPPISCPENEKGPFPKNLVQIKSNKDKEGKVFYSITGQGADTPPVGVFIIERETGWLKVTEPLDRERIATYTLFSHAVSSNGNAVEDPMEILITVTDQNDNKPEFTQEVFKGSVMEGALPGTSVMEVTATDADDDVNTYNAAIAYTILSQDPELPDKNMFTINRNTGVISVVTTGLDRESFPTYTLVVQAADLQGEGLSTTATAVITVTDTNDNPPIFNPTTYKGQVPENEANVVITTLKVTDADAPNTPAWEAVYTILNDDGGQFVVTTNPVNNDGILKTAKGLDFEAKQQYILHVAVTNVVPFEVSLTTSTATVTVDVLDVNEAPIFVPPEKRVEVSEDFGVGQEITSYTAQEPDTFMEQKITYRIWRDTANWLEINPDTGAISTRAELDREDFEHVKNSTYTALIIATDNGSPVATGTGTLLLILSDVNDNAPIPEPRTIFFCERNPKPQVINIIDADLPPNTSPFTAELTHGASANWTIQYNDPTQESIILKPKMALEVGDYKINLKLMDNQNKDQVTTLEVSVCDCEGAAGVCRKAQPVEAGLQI
Procedure: (§1) The phage clones shown to bind to the N-cadherin/Fc chimeric protein by ELISA were also evaluated for their ability to bind to E-cadherin/Fc and VE-cadherin/Fc chimeric proteins. The phage clones shown to bind to the E-cadherin/Fc chimeric protein by ELISA were also evaluated for their ability to bind to N-cadherin/Fc and VE-cadherin/Fc chimeric proteins. The same ELISA protocol described in the previous section was used to perform this evaluation with the exception that the wells were coated with either 100 ng N-cadherin/Fc, E-cadherin/Fc or VE-cadherin/Fc chimeric protein (R&D Systems, Minneapolis, Minn.).

[2] = target: T2, VE-cadherin/Fc chimeric protein (UniProt P33151 48-593); test: phage ELISA
T2 construct: Bought from R&D Systems; also called vascular endothelial (VE)-cadherin/Fc chimeric protein; not shown: Fc part not described
T2 sequence (looked up): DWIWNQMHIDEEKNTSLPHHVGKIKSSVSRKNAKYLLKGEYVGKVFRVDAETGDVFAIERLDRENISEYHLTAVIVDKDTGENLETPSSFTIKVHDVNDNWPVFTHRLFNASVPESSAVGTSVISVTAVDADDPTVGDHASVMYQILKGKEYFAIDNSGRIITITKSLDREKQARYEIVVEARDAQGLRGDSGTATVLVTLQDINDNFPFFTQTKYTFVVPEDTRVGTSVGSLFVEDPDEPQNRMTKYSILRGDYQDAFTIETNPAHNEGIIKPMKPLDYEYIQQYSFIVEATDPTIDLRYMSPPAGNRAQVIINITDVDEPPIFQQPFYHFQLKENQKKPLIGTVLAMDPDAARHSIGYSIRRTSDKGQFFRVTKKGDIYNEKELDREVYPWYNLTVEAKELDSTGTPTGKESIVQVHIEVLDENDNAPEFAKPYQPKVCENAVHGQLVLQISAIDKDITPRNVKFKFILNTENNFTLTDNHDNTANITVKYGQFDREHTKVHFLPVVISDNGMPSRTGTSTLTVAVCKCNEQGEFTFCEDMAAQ
Procedure: as §1

[3] = target: T1, E-cadherin/Fc chimeric protein; test: summary table, column Peptide Binds to E-cad/Fc; assay not named
[4] = target: T3, N-cadherin/Fc chimeric protein (human, UniProt P19022 160-724); test: summary table, column Peptide Binds to N-cad/Fc; assay not named
T3 construct: range 160-724; Bought from R&D Systems; also called N-cad/Fc; human N-cadherin/Fc chimeric protein; not shown: Fc region of human IgG1
T3 sequence (looked up): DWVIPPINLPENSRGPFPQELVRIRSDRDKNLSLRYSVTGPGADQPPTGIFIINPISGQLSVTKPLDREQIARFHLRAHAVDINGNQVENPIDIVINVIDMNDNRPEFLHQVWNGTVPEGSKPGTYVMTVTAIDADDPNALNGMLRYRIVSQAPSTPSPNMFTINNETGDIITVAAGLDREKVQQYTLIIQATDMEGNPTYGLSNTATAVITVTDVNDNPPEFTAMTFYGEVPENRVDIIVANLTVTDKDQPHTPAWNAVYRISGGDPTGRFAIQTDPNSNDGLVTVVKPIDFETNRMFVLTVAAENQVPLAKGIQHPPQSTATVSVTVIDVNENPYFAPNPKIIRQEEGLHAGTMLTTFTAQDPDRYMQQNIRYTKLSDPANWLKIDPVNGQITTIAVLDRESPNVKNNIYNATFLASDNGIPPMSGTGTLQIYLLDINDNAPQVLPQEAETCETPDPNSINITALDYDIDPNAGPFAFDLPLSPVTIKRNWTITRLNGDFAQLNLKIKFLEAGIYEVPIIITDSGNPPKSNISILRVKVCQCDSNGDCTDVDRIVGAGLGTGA

[5] = target: T3, N-cadherin/Fc chimeric protein; test: phage ELISA
Procedure: (§2) The binding of each clone to the cadherin/Fc chimeric proteins was confirmed by ELISA. Wells of ProBind microtiter plates (Falcon) were coated with either N-cadherin/Fc or E-cadherin/Fc chimeric protein (100 ng/well) or human IgG1 (which contains the Fc fragment) (100 ng/well). After blocking the nonspecific sites with TBS containing 3% BSA and 1.2 mM CaCl₂ for 1 h at 37° C., phage clones (10⁹ pfu) diluted in TBST containing 3% BSA and 1.2 mM CaCl₂ (100 μl/well). Non-coated wells were also used to exclude any phage that bound to the plastic surface. After 1 h incubation at room temperature, wells were washed 3 times with TBST containing 3% BSA and 1.2 mM CaCl₂. M13 phage without any insert were used to control the non-specific binding of the phage itself to the target. Monoclonal anti-M13 antibody conjugated to horseradish peroxidase (Amersham Biosciences, Piscataway, N.J.) was diluted in TBST containing 3% BSA and 1.2 mM CaCl₂ (1:2,000) and added to each well (100 μl/well). After 1 h incubation at room temperature, wells were washed three times with TBST containing 3% BSA and 1.2 mM CaCl₂ and once with TBS containing 1.2 mM CaCl₂. Horseradish peroxidase substrate, TMB (Sigma), was added to each well (100 μl/well and after color development the reaction was stopped by addition of 100 μl 0.5 M sulphuric acid to each well. The intensity of the color was measured at 450 nm.
as §1

[6] = target: T1, E-cadherin/Fc chimeric protein; test: phage ELISA; remark: listed apart in the source
Procedure: as §2, §1

[7] = target: T2, VE-cadherin/Fc chimeric protein; test: phage ELISA; remark: listed apart in the source
Procedure: as §2, §1

[8] = target: T3, N-cadherin/Fc chimeric protein; test: phage ELISA, 1.2 mM calcium
Procedure: as §2
An ELISA was performed in the presence of either 1.2 mM calcium or 2 mM EDTA. […] The signal obtained in the presence of EDTA was lower than in the presence of calcium.

**Q.** Does WELRVSSPC (whole phage in the assay) [phage clone Nc a7] bind [1]?
**A.** Result: no binding (tested: 10^9 pfu)

**Q.** Does WELRVSSPC (whole phage in the assay) [phage clone Nc a7] bind [2]?
**A.** Result: no binding (tested: 10^9 pfu)

**Q.** Which results are given for H-WELRVSSP-NH2 (Synthetic linear peptide) [H-WELRVSSP-NH2]?
**A.** binding result [3]: no binding; binding result [4]: binds

B1: phage clone Ec a23 (peptide)
peptide: CSRPQSGLC
modifications: not fully specified; cysteine pairing not given here; also: displayed on M13 phage pIII
notes: whole phage in the assay
**Q.** Does B1 bind [5]?
**A.** Result: binds

**Q.** Does B1 bind [6]?
**A.** Result: binds

**Q.** Does B1 bind [7]?
**A.** Result: no binding (tested: 10^9 pfu)

**Q.** Which results are given for WLQPYFPSY (whole phage in the assay) [phage clone Nc 1]?
**A.** binding result [1]: no binding (tested: 10^9 pfu); binding result [2]: no binding (tested: 10^9 pfu)

B2: phage clone Nc 5 (peptide)
peptide: WEFSICETC
modifications: not fully specified; cysteine pairing not given here; also: displayed on M13 phage pIII
notes: whole phage in the assay
**Q.** Does B2 bind [1]?
**A.** Result: no binding (tested: 10^9 pfu)

**Q.** Does B2 bind [2]?
**A.** Result: no binding (tested: 10^9 pfu)

B3: phage clone Nc 25 (peptide)
peptide: WELCVSSSC
modifications: not fully specified; cysteine pairing not given here; also: displayed on M13 phage pIII
notes: whole phage in the assay
**Q.** Does B3 bind [1]?
**A.** Result: no binding (tested: 10^9 pfu)

**Q.** Does B3 bind [2]?
**A.** Result: no binding (tested: 10^9 pfu)

**Q.** Does HWYITTGPVREK (whole phage in the assay) [phage clone Nc 12-01] bind [1]?
**A.** Result: no binding (tested: 10^9 pfu)

**Q.** Does HWYITTGPVREK (whole phage in the assay) [phage clone Nc 12-01] bind [2]?
**A.** Result: no binding (tested: 10^9 pfu)

**Q.** Does HWYITTGPVREK (whole phage in the assay) [phage clone Nc 12-01] bind [8]?
**A.** Result: binds

**Q.** Does SWTLYTPSGQSK (whole phage in the assay) [phage clone Nc 12-a2] bind [1]?
**A.** Result: no binding (tested: 10^9 pfu)

**Q.** Does SWTLYTPSGQSK (whole phage in the assay) [phage clone Nc 12-a2] bind [2]?
**A.** Result: no binding (tested: 10^9 pfu)

**Q.** Does WTWHWPPCC (whole phage in the assay) [phage clone Ec a22] bind [5]?
**A.** Result: binds

**Q.** Does WTWHWPPCC (whole phage in the assay) [phage clone Ec a22] bind [6]?
**A.** Result: binds

**Q.** Does WTWHWPPCC (whole phage in the assay) [phage clone Ec a22] bind [7]?
**A.** Result: no binding (tested: 10^9 pfu)

B4: phage clone Nc 15 (peptide)
peptide: WEVCLTEKC
modifications: not fully specified; cysteine pairing not given here; also: displayed on M13 phage pIII
notes: whole phage in the assay
**Q.** What does the source list for B4?
**A.** binding result [1]: no binding (tested: 10^9 pfu); binding result [2]: no binding (tested: 10^9 pfu)

**Q.** Does WEVRLTEKC (whole phage in the assay) [phage clone Nc a3] bind [1]?
**A.** Result: no binding (tested: 10^9 pfu)

**Q.** Does WEVRLTEKC (whole phage in the assay) [phage clone Nc a3] bind [2]?
**A.** Result: no binding (tested: 10^9 pfu)

**Q.** Does H-HWYITTGPVREK-NH2 (Synthetic linear peptide) [H-HWYITTGPVREK-NH2] bind [3]?
**A.** Result: no binding

**Q.** Does H-HWYITTGPVREK-NH2 (Synthetic linear peptide) [H-HWYITTGPVREK-NH2] bind [4]?
**A.** Result: binds

B5: phage clone Ec a4 (peptide)
peptide: CSKYNSPLC
modifications: not fully specified; cysteine pairing not given here; also: displayed on M13 phage pIII
notes: whole phage in the assay
**Q.** Does B5 bind [5]?
**A.** Result: binds

**Q.** Does B5 bind [6]?
**A.** Result: binds

**Q.** Does B5 bind [7]?
**A.** Result: no binding (tested: 10^9 pfu)

**Q.** What does the source list for WLQPYFPSY (whole phage in the assay) [phage clone Nc a5]?
**A.** binding result [1]: no binding (tested: 10^9 pfu); binding result [2]: no binding (tested: 10^9 pfu)

**Q.** What does the source list for SWTLYTPSGQSK (whole phage in the assay) [phage clone Nc 12-04]?
**A.** binding result [1]: no binding (tested: 10^9 pfu); binding result [2]: no binding (tested: 10^9 pfu)

**Q.** What does the source list for H-SWELYYPLRANL-NH2 (Synthetic linear peptide) [H-SWELYYPLRANL-NH2]?
**A.** binding result [3]: binds; binding result [4]: binds

**Q.** Does H-EWMIHYDSALTS-NH2 (Synthetic linear peptide) [H-EWMIHYDSALTS-NH2] bind [3]?
**A.** Result: binds

**Q.** Does H-EWMIHYDSALTS-NH2 (Synthetic linear peptide) [H-EWMIHYDSALTS-NH2] bind [4]?
**A.** Result: binds

B6: phage clone Nc 8 (peptide)
peptide: WTVCPIGNC
modifications: not fully specified; cysteine pairing not given here; also: displayed on M13 phage pIII
notes: whole phage in the assay
**Q.** Does B6 bind [1]?
**A.** Result: no binding (tested: 10^9 pfu)

**Q.** Does B6 bind [2]?
**A.** Result: no binding (tested: 10^9 pfu)

**Q.** Does H-WYVCVGAH-NH2 (Synthetic linear peptide) [H-WYVCVGAH-NH2] bind [3]?
**A.** Result: no binding

**Q.** Does H-WYVCVGAH-NH2 (Synthetic linear peptide) [H-WYVCVGAH-NH2] bind [4]?
**A.** Result: binds

**Q.** What does the source list for WHTSWSDTY (whole phage in the assay) [phage clone Nc 19]?
**A.** binding result [1]: no binding (tested: 10^9 pfu); binding result [2]: no binding (tested: 10^9 pfu)

B7: phage clone Ec a3 (peptide)
peptide: WQMVLCPAC
modifications: not fully specified; cysteine pairing not given here; also: displayed on M13 phage pIII
notes: whole phage in the assay
**Q.** Does B7 bind [5]?
**A.** Result: binds

**Q.** Does B7 bind [6]?
**A.** Result: binds

**Q.** Does B7 bind [7]?
**A.** Result: no binding (tested: 10^9 pfu)
